From article doi:10.1101/2024.09.02.610768 (bioRxiv, 2024)

What was measured:
SEC-MALS = target: the molecule itself; assay: SEC-MALS
FrzCDΔMA (DB-H1-H2) [1] = target: T1, FrzCDΔMA (DB-H1-H2) (Myxococcus xanthus, UniProt P43500 1-137, del138-417); assay: EMSA
T1 sequence: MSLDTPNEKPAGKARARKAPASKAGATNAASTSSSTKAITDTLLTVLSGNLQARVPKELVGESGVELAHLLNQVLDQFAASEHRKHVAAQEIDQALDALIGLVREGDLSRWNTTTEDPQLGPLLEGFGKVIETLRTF

FrzCD [2] = target: T2, FrzCD (Myxococcus xanthus, UniProt P43500 1-417); assay: EMSA
T2 sequence: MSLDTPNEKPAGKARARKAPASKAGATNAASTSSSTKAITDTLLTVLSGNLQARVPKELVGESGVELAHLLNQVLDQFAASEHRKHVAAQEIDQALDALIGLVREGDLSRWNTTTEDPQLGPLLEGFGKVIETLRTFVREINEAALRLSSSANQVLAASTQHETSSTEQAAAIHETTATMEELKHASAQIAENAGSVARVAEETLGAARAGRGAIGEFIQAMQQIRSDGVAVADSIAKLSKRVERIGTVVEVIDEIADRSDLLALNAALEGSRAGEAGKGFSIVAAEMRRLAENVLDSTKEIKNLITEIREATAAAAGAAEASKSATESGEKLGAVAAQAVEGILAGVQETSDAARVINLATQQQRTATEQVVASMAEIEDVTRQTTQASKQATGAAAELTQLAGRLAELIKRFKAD

FrzCDΔMA (DB-H1-H2) [3] = target: T1, FrzCDΔMA (DB-H1-H2); assay: EMSA; remark: listed apart in the source
FrzCDΔH1ΔH2 [4] = target: T3, FrzCDΔH1ΔH2 (Myxococcus xanthus, UniProt P43500 1-417, del31-137); assay: BLI
T3 sequence: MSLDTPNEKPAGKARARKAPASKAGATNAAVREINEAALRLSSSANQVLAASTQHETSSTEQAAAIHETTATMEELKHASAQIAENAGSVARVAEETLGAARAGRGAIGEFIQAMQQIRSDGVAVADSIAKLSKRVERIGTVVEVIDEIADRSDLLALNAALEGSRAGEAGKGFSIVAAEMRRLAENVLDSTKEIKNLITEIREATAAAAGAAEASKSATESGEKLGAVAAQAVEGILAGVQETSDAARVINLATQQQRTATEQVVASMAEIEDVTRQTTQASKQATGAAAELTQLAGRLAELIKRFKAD

FrzCDΔH1 [5] = target: T4, FrzCDΔH1 (Myxococcus xanthus, UniProt P43500 1-417, del31-83); assay: BLI
T4 sequence: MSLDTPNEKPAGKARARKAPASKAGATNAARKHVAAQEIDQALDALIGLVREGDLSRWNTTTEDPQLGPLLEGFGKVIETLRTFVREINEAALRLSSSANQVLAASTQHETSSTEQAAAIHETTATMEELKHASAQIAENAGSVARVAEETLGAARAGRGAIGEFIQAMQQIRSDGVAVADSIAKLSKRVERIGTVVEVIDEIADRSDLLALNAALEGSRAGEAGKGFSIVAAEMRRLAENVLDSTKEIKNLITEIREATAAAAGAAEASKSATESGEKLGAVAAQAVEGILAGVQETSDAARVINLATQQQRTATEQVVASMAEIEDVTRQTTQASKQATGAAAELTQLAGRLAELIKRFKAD

FrzCDΔH2 (DB-H1-MA) [6] = target: T5, FrzCDΔH2 (DB-H1-MA) (Myxococcus xanthus, UniProt P43500 1-417, del84-137); assay: BLI
T5 sequence: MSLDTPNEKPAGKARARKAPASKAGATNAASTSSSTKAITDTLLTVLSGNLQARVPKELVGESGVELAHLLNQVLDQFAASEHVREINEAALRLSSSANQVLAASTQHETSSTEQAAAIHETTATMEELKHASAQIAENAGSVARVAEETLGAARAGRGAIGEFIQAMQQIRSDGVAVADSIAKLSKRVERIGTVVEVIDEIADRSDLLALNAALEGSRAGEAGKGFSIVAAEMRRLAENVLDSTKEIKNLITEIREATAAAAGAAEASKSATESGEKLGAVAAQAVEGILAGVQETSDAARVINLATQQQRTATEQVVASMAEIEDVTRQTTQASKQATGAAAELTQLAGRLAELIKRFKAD

FrzCD [7] = target: T2, FrzCD; assay: BLI
FrzCD [8] = target: T2, FrzCD; assay: SEC-MALS
FrzCDΔMA (DB-H1-H2) [9] = target: T1, FrzCDΔMA (DB-H1-H2); assay: SEC-MALS
FrzCDΔH1ΔH2 [10] = target: T3, FrzCDΔH1ΔH2; assay: EMSA
FrzCDΔH1 [11] = target: T4, FrzCDΔH1; assay: EMSA
FrzCDΔH2 (DB-H1-MA) [12] = target: T5, FrzCDΔH2 (DB-H1-MA); assay: EMSA

B1: FrzCD^ΔH1 (receptor, Myxococcus xanthus, UniProt P43500 1-417, looked up)
chain: MSLDTPNEKPAGKARARKAPASKAGATNAARKHVAAQEIDQALDALIGLVREGDLSRWNTTTEDPQLGPLLEGFGKVIETLRTFVREINEAALRLSSSANQVLAASTQHETSSTEQAAAIHETTATMEELKHASAQIAENAGSVARVAEETLGAARAGRGAIGEFIQAMQQIRSDGVAVADSIAKLSKRVERIGTVVEVIDEIADRSDLLALNAALEGSRAGEAGKGFSIVAAEMRRLAENVLDSTKEIKNLITEIREATAAAAGAAEASKSATESGEKLGAVAAQAVEGILAGVQETSDAARVINLATQQQRTATEQVVASMAEIEDVTRQTTQASKQATGAAAELTQLAGRLAELIKRFKAD
B1 was tested, and the “stoichiometry N” value (SEC-MALS) was 4.

B2: 12 bp DNA (dsDNA)
DNA 1: CTCACTATAGGG
DNA 2: CCCTATAGTGAG
B2: binds (FrzCDΔMA (DB-H1-H2) [1]).

AAAAAAAA (ssDNA) [8-base poly-A ssDNA]: binds (FrzCD [2]).

B3: 8 bp DNA (dsDNA)
DNA 1: ACTGCAGT
DNA 2: ACTGCAGT
B3: binds (FrzCD [2]); binds (FrzCDΔMA (DB-H1-H2) [3]).

B4: FrzCD^ΔH2 (receptor, Myxococcus xanthus, UniProt P43500 1-417, looked up)
chain: MSLDTPNEKPAGKARARKAPASKAGATNAASTSSSTKAITDTLLTVLSGNLQARVPKELVGESGVELAHLLNQVLDQFAASEHVREINEAALRLSSSANQVLAASTQHETSSTEQAAAIHETTATMEELKHASAQIAENAGSVARVAEETLGAARAGRGAIGEFIQAMQQIRSDGVAVADSIAKLSKRVERIGTVVEVIDEIADRSDLLALNAALEGSRAGEAGKGFSIVAAEMRRLAENVLDSTKEIKNLITEIREATAAAAGAAEASKSATESGEKLGAVAAQAVEGILAGVQETSDAARVINLATQQQRTATEQVVASMAEIEDVTRQTTQASKQATGAAAELTQLAGRLAELIKRFKAD
In the case of B4, the “stoichiometry N” value (SEC-MALS) is reported as 4.

B5: FrzCD full-length (His6-tagged) (receptor, Myxococcus xanthus, UniProt P43500 1-417, looked up)
chain: MSLDTPNEKPAGKARARKAPASKAGATNAASTSSSTKAITDTLLTVLSGNLQARVPKELVGESGVELAHLLNQVLDQFAASEHRKHVAAQEIDQALDALIGLVREGDLSRWNTTTEDPQLGPLLEGFGKVIETLRTFVREINEAALRLSSSANQVLAASTQHETSSTEQAAAIHETTATMEELKHASAQIAENAGSVARVAEETLGAARAGRGAIGEFIQAMQQIRSDGVAVADSIAKLSKRVERIGTVVEVIDEIADRSDLLALNAALEGSRAGEAGKGFSIVAAEMRRLAENVLDSTKEIKNLITEIREATAAAAGAAEASKSATESGEKLGAVAAQAVEGILAGVQETSDAARVINLATQQQRTATEQVVASMAEIEDVTRQTTQASKQATGAAAELTQLAGRLAELIKRFKAD
B5 was tested, and the “stoichiometry N” value (SEC-MALS) was 2.

B6: FrzCD^ΔH1ΔH2 (receptor, Myxococcus xanthus, UniProt P43500 1-417, looked up)
chain: MSLDTPNEKPAGKARARKAPASKAGATNAAVREINEAALRLSSSANQVLAASTQHETSSTEQAAAIHETTATMEELKHASAQIAENAGSVARVAEETLGAARAGRGAIGEFIQAMQQIRSDGVAVADSIAKLSKRVERIGTVVEVIDEIADRSDLLALNAALEGSRAGEAGKGFSIVAAEMRRLAENVLDSTKEIKNLITEIREATAAAAGAAEASKSATESGEKLGAVAAQAVEGILAGVQETSDAARVINLATQQQRTATEQVVASMAEIEDVTRQTTQASKQATGAAAELTQLAGRLAELIKRFKAD
In the case of B6, the “stoichiometry N” value (SEC-MALS) is reported as 4.

B7: 178 bp DNA (dsDNA)
DNA 1: GGATCGCATCTGCCTACATCCCCAGCTCCCGGTCGGTCCGCTCGGAACCTAGCCCGGGTCAAAGACCCGGGGTCTATGTTGACCCATTTGGTGGGGATGGGTCTAATTGGACCTGGCGTTTTTTCGCGCCATGGAAATGTCAAGGCCCGTGATTCCAGACTGTTGGGCAGGGAGTT
DNA 2: AACTCCCTGCCCAACAGTCTGGAATCACGGGCCTTGACATTTCCATGGCGCGAAAAAACGCCAGGTCCAATTAGACCCATCCCCACCAAATGGGTCAACATAGACCCCGGGTCTTTGACCCGGGCTAGGTTCCGAGCGGACCGACCGGGAGCTGGGGATGTAGGCAGATGCGATCC
Work on B7 yielded a Kd (FrzCDΔH1ΔH2 [4]) of 0.203 µM, a Kd (FrzCDΔH1 [5]) of 2.27 µM and a Kd (FrzCDΔH2 (DB-H1-MA) [6]) of 2.64 µM. For the same binder, the Kd (FrzCD [7]) was 1.07 µM.

B8: FrzCD^ΔMA (domain or fragment, Myxococcus xanthus, UniProt P43500 1-137, looked up)
chain: MSLDTPNEKPAGKARARKAPASKAGATNAASTSSSTKAITDTLLTVLSGNLQARVPKELVGESGVELAHLLNQVLDQFAASEHRKHVAAQEIDQALDALIGLVREGDLSRWNTTTEDPQLGPLLEGFGKVIETLRTF
For B8, the “stoichiometry N” value (SEC-MALS) was 2.

B9: 35 bp DNA (dsDNA)
DNA 1: GTCACCTGCTCTAGCTAATAGACTGAGCCGAGGTG
DNA 2: CACCTCGGCTCAGTCTATTAGCTAGAGCAGGTGAC
B9: binds (FrzCD [8]); binds (FrzCDΔMA (DB-H1-H2) [9]); binds (FrzCDΔH1ΔH2 [10]). B9: binds (FrzCDΔH1 [11]); binds (FrzCDΔH2 (DB-H1-MA) [12]).
